Patent publication US20230118307A1, “THERAPEUTIC USE OF LONG-ACTING CONJUGATE OF TRIPLE AGONIST HAVING ACTIVITIES TO ALL OF GLUCAGON/GLP-1/GIP RECEPTORS FOR LUNG DISEASE” (HANMI PHARM. CO., LTD., priority 2020, published 2023)
Positions of bridges follow the written chain, without caps; N, C: chain ends. Non-standard residues stand in square brackets, D forms with d. No end group written: not given here. *: point of attachment. Acetyl(2-(4-imidazolyl)) = O=C(Cc1c[nH]cn1)*; Aib = CC(C)(N)C(=O)O

T1: human GIP receptor (human, UniProt P48546 22-466)
T1 sequence (looked up): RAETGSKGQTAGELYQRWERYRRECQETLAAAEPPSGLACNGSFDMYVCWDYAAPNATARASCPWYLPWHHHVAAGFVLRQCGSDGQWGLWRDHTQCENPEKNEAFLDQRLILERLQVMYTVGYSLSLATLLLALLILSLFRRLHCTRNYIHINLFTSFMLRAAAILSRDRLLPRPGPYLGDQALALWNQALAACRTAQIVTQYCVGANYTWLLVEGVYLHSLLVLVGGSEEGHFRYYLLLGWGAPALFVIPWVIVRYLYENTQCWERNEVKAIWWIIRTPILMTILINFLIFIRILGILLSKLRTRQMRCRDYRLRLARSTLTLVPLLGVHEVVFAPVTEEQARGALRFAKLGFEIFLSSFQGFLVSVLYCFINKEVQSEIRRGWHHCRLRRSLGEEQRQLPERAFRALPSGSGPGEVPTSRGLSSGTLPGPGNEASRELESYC


Key:
Test in all cases: cell-based or functional assay
[1] = molecular target: T1, human GIP receptor
[2] = molecular target: human GLP-1 receptor (human, UniProt P43220 24-463)
[3] = molecular target: human GCG receptor (human, UniProt P47871 26-477)
human GCG receptor, sequence (P47871 26-477): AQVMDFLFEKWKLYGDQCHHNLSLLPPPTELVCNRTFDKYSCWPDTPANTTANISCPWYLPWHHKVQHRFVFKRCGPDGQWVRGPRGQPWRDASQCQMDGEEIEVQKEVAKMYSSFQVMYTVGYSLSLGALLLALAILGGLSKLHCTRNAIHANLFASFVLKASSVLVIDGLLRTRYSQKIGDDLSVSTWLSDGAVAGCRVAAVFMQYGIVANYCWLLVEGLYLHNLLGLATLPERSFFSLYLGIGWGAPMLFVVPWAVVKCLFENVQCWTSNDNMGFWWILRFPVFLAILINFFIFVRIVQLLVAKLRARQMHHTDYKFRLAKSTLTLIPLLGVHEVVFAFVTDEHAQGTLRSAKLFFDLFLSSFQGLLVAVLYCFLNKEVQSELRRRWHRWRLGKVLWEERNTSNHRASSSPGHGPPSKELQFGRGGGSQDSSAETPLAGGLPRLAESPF

| Binder | In vitro Activity Compared to Native Peptide (%) vs. GIP [1] [%] | In vitro Activity Compared to Native Peptide (%) vs. GLP-1 [2] [%] | In vitro Activity Compared to Native Peptide (%) vs. Glucagon [3] [%] |
| --- | --- | --- | --- |
| Y[Aib]QGTFTSDYSKALDEKAAKEFVNWLLDHHPSSGQPPPSC (bridge 16-20) [triple agonist of SEQ ID NO: 98] | 47.1 | 28.1 | 8.2 |
| Y[Aib]QGTFTSDYSKYLDEKRAKEFVQWLLDHCPSSGQPPPS (bridge 16-20) [triple agonist of SEQ ID NO: 96] | 5.2 | 34.4 | 195 |
| [Acetyl(2-(4-imidazolyl))][Aib]QGTFTSDYSKYLDEKRQKEFVNWLLAQC (bridge 16-20) [triple agonist of SEQ ID NO: 86] | 0.2 | 28.4 | 0.4 |
| H[Aib]EGTFTSDYSIAMDEIHQKDFVDWLLAEKC (bridge 16-20) [triple agonist of SEQ ID NO: 80] | 0.1 | 8.1 | 0 |
| H[Aib]QGTFTSDVSKYLDGQAAQEFVAWLLAGC [triple agonist of SEQ ID NO: 9] | < 0.1 | 32.1 | 0.13 |
| [Acetyl(2-(4-imidazolyl))][Aib]QGTFTSDYSKYLDEKRQKEFVQWLLDTC (bridge 16-20) [triple agonist of SEQ ID NO: 82] | < 0.1 | 9.5 | 1.1 |
| [Acetyl(2-(4-imidazolyl))][Aib]QGTFTSDYSKYLDEKRQKEFVQWLLNTKC (bridge 16-20) [triple agonist of SEQ ID NO: 88] | < 0.1 | 9.6 | 0.3 |
| Y[Aib]QGTFTSDYSKYLDEKRAKEFVQWLLDCHPSSGQPPPS (bridge 16-20) [triple agonist of SEQ ID NO: 97] | 2.6 | 10.5 | 62.8 |
| H[Aib]QGTFTSDYSKYLDEKRQKEFVQWLLDTKC (bridge 16-20) [triple agonist of SEQ ID NO: 78] | 0.12 | 51 | 14 |
| Y[Aib]QGTFTSDYSKALDEKAAKEFVQWLLDQHPSSGQPPPSC (bridge 16-20) [triple agonist of SEQ ID NO: 100] | 118 | 42.2 | 12.7 |
| Y[Aib]QGTFTSDYSKYLDEKAAKDFVQWLLDHHPSSGQPPPSC (bridge 16-20) [triple agonist of SEQ ID NO: 77] | 35.5 | 38.7 | 12.2 |
| [Acetyl(2-(4-imidazolyl))][Aib]EGTFTSDYSIAMDEIHQKDFVNWLLAQKC (bridge 16-20) [triple agonist of SEQ ID NO: 90] | < 0.1 | 7.4 | < 0.1 |
| [Acetyl(2-(4-imidazolyl))][Aib]QGTFTSDYSIAMDEIHQKDFVNWLLNTC (bridge 16-20) [triple agonist of SEQ ID NO: 87] | < 0.1 | 0.9 | < 0.1 |
| [Acetyl(2-(4-imidazolyl))][Aib]QGTFTSDYSKYLDEKRQKEFVQWLLNTC (bridge 16-20) [triple agonist of SEQ ID NO: 81] | < 0.1 | 7.8 | 0.3 |
| [Acetyl(2-(4-imidazolyl))][Aib]QGTFTSDYSKYLDEKRQKEFVNWLLAQKC (bridge 16-20) [triple agonist of SEQ ID NO: 93] | 0.7 | 5.7 | 0.3 |
| [Acetyl(2-(4-imidazolyl))][Aib]EGTFTSDYSIAMDEIHQKDFVDWLLAEC (bridge 16-20) [triple agonist of SEQ ID NO: 84] | < 0.1 | 4.2 | < 0.1 |
| Y[Aib]QGTFTSDYSKYLDEKRAKDFVQWLLDHHPSSGQPPPSC (bridge 16-20) [triple agonist of SEQ ID NO: 76] | 11.7 | 10.3 | 47.6 |
| [Acetyl(2-(4-imidazolyl))][Aib]QGTFTSDYSIAMDEIHQKDFVNWLLAQC (bridge 16-20) [triple agonist of SEQ ID NO: 85] | 0.3 | 4.3 | < 0.1 |
| H[Aib]QGTFTSDVSKYLDGQAAQEFVAWLLAGGGPSSGAPPPSC [triple agonist of SEQ ID NO: 10] | < 0.1 | 46 | < 0.1 |
| [Acetyl(2-(4-imidazolyl))][Aib]QGTFTSDYSIAMDEIHQKDFVNWLLAQKC (bridge 16-20) [triple agonist of SEQ ID NO: 92] | 0.4 | 0.8 | < 0.1 |
| Y[Aib]QGTFTSDYSKALDEKAAKDFVNWLLDHHPSSGQPPPSC (bridge 16-20) [triple agonist of SEQ ID NO: 99] | 57.7 | 20.9 | 14.9 |
| [Acetyl(2-(4-imidazolyl))][Aib]EGTFTSDYSIAMDEIHQKDFVDWLLAEKC (bridge 16-20) [triple agonist of SEQ ID NO: 91] | 0.3 | 31.9 | 16.8 |
| Y[Aib]QGTFTSDYSKYLDEKRAKEFVQWLLCHHPSSGQPPPS (bridge 16-20) [triple agonist of SEQ ID NO: 95] | < 0.1 | 2.1 | 0.4 |
| Y[Aib]QGTFTSDYSKALDEKAAKEFVNWLLDQHPSSGQPPPSC (bridge 16-20) [triple agonist of SEQ ID NO: 101] | 40.1 | 23.2 | 13.9 |
| [Acetyl(2-(4-imidazolyl))][Aib]EGTFTSDYSIAMDEIHQKDFVNWLLAQC (bridge 16-20) [triple agonist of SEQ ID NO: 83] | 0.4 | 47.3 | 1.3 |
| [Acetyl(2-(4-imidazolyl))][Aib]QGTFTSDYSIAMDEIHQKDFVNWLLNTKC (bridge 16-20) [triple agonist of SEQ ID NO: 94] | < 0.1 | 0.5 | < 0.1 |
| Y[Aib]QGTFTSDYSKALDEKAAKDFVNWLLDQHPSSGQPPPSC (bridge 16-20) [triple agonist of SEQ ID NO: 102] | 58 | 23.3 | 29.5 |
| [Acetyl(2-(4-imidazolyl))][Aib]QGTFTSDYSKYLDEKRQKEFVQWLLDTKC (bridge 16-20) [triple agonist of SEQ ID NO: 89] | < 0.1 | 7.1 | 0.7 |
| H[Aib]EGTFTSDYSIAMDEIHQKDFVNWLLAQKC (bridge 16-20) [triple agonist of SEQ ID NO: 79] | 1.4 | 41.5 | 4.9 |
